Assay [1] addresses human FcγRIIa-H variant (Histidine at amino acid 131) on Jurkat effector cells (human) (UniProt P12318). As to the kind of experiment: cell-based or functional assay.
The target of assay [2] is FcγRIIIa on Jurkat effector cells (UniProt P08637). As to the kind of experiment: cell-based or functional assay.
For assay [3], the target named is FcγRIIa (secondary ADCP assay, M2c macrophage effector cells) (UniProt P12318). The experiment in a line: cell-based or functional assay.
Assay [4] concerns the target FcγRIIIa (secondary ADCC assays, NK effector cells) (UniProt P08637). As to the kind of experiment: cell-based or functional assay.
A further assay addresses FcγRIIa (UniProt P12318). As to the kind of experiment: SPR, FcγRIIa binding. (In general: SPR reads the build-up and loss of mass on a sensor chip optically.)

afucosylated anti-PD-L1 IgG1 antibody (avelumab), sequence (HC): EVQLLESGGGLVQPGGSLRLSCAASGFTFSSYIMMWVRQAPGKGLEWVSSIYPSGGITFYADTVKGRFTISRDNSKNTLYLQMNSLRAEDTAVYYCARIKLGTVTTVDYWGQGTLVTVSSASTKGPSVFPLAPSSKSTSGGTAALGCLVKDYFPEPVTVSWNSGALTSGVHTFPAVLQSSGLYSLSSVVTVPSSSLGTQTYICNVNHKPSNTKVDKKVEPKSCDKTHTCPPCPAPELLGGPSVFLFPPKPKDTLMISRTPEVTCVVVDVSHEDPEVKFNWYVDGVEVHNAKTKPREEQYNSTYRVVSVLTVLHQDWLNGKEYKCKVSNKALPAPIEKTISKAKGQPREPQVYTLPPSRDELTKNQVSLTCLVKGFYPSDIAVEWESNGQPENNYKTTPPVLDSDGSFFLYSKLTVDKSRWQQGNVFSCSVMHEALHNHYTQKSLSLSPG
afucosylated anti-PD-L1 IgG1 antibody (avelumab), sequence (LC): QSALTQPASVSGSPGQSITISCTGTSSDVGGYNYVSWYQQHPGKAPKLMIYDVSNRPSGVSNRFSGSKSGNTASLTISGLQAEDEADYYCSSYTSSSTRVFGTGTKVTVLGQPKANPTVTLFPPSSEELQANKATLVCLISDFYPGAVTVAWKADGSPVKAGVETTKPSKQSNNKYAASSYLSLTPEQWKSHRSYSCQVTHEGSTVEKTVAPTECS
fucosylated anti-PD-L1 IgG1 antibody (avelumab), sequence (HC): as the sequence (HC) above
fucosylated anti-PD-L1 IgG1 antibody (avelumab), sequence (LC): as the sequence (LC) above
FcγRIIa, sequence (P12318 34-217 limits assumed): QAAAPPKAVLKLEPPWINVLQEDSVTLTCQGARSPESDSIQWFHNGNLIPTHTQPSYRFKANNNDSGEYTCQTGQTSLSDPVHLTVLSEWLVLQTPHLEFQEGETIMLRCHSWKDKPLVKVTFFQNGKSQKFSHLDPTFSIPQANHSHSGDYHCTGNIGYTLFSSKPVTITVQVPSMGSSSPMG
human FcγRIIa-H variant (Histidine at amino acid 131) on Jurkat effector cells (human), sequence (P12318 34-317, change not shown): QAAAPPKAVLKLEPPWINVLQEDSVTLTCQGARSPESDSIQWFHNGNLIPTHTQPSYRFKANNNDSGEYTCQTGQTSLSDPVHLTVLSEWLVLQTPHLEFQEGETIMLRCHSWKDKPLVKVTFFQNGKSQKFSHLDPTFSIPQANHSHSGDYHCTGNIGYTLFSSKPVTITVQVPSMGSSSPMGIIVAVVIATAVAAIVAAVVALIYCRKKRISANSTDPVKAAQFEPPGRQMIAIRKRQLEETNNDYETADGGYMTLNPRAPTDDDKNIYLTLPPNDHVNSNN

In assay [1], “fucosylated anti-CD20 IgG1 antibody (obinutuzumab)” gave an EC50 mean, FcγRIIa signaling in ADCP reporter assay (Raji targets) of 7.1 nM. This substance gave an EC50 mean, FcγRIIIa signaling in ADCC reporter assay (Raji targets) in assay [2] of 7.1 nM. In addition, in assay [3], the EC50 mean, ADCP in KILR Raji cells (M2c macrophages) was 0.82 nM. Moreover, the EC50 mean, ADCC in KILR Raji cells (NK cells) in assay [4] was 0.033 nM.

For the substance “afucosylated version of Ipilimumab (antibody)”, the fold enhancement of binding by afucosylation with FcγRIIa was 10 fold.

Consider “afucosylated anti-CD20 IgG1 antibody (obinutuzumab)”, for which, in assay [3], the EC50 mean, ADCP in KILR Raji cells (M2c macrophages) was determined as 0.37 nM.

Regarding “afucosylated anti-PD-L1 IgG1 antibody (avelumab)”, in assay [4], the EC50 mean, ADCC in KILR-A549 cells (NK cells) was 0.0054 nM.

In the case of “fucosylated anti-PD-L1 IgG1 antibody (avelumab)”, the EC50 mean, FcγRIIIa signaling in ADCC reporter assay (HEK-PD-L1 targets) in assay [2] is 0.049 nM.

Source of the values: patent publication US20200040084A1.
